From patent US20100209447A1 (TUFTS UNIVERSITY, published 2010)

Target: the molecule itself
Test: Coomassie-stained gel; self-association inferred from a band of about 17 kD against a 3.5 kD monomer

B1: C-POD, CGGG(ARKKAAKA)4 (peptide)
peptide: CGGGARKKAAKAARKKAAKAARKKAAKAARKKAAKA
notes: Synthetic peptide with a 3.5 kD monomer; also called cysteine containing POD; cysteine-POD
  binding result: binds
